Measurements as given in patent publication US20250320302A1 (EVOTEC INTERNATIONAL, published 2025).
Where a chain is given by its changes, count along the chain named. Where two headings read alike, the source gives them in different places. Each block holds one binder with its values, some of them ahead of it.

Key:
Assay in all cases: cell-based or functional assay
human CD40 [1] = target: T1, human CD40 (human, UniProt P25942 21-277)
[2] = target: T2, human type I IFN receptor on HEK-Blue IFN-α/β cells (human, UniProt P17181 28-557; P48551 27-515)
T2 sequence (looked up) 1: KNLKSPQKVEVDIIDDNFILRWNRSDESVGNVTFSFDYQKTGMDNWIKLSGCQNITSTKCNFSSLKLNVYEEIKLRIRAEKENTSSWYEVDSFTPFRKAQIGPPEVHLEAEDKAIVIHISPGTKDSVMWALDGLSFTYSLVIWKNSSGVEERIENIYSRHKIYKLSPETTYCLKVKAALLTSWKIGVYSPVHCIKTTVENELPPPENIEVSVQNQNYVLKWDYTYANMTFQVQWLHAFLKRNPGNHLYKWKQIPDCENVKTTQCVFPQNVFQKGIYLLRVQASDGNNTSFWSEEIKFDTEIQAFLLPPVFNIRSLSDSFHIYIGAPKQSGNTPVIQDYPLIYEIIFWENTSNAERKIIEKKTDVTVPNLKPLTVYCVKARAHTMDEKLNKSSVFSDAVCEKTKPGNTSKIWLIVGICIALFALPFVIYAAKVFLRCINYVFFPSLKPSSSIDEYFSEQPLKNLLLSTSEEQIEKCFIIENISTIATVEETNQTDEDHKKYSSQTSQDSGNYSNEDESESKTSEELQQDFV
T2 sequence (looked up) 2: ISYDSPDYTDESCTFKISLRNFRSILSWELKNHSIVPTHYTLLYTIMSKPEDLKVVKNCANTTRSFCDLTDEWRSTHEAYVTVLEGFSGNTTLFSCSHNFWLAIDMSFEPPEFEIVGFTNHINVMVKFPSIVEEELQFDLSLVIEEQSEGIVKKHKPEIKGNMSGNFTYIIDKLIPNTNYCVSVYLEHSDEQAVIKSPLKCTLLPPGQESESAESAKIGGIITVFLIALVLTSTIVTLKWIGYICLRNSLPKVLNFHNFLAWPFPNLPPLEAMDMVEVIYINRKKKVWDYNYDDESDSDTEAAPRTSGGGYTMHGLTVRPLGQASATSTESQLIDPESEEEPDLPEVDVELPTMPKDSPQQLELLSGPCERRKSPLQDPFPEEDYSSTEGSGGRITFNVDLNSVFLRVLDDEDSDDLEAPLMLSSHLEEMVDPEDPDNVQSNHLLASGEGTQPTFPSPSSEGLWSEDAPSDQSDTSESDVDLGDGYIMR

[3] = target: human IFNγ receptor on HEK-Blue IFN-γ cells (human)
human CD40 [4] = target: T1, human CD40; remark: listed apart in the source
[5] = target: human IFNγ receptor on HEK-Blue IFN-γ cells (human); remark: listed apart in the source
[6] = target: human IFNλ receptor on HEK-Blue IFN-λ cells (human)
human CD40 [7] = target: T1, human CD40; remark: listed apart in the source

T1 sequence (P25942 21-277): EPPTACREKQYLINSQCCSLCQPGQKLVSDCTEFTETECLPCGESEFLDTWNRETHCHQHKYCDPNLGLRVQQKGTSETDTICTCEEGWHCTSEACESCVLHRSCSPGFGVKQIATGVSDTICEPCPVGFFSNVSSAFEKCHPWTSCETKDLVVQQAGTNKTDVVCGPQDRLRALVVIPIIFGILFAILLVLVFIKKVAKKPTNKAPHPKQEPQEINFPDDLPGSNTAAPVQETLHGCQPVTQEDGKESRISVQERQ

B3: IFA43 (antibody, human IgG2, kappa)
heavy: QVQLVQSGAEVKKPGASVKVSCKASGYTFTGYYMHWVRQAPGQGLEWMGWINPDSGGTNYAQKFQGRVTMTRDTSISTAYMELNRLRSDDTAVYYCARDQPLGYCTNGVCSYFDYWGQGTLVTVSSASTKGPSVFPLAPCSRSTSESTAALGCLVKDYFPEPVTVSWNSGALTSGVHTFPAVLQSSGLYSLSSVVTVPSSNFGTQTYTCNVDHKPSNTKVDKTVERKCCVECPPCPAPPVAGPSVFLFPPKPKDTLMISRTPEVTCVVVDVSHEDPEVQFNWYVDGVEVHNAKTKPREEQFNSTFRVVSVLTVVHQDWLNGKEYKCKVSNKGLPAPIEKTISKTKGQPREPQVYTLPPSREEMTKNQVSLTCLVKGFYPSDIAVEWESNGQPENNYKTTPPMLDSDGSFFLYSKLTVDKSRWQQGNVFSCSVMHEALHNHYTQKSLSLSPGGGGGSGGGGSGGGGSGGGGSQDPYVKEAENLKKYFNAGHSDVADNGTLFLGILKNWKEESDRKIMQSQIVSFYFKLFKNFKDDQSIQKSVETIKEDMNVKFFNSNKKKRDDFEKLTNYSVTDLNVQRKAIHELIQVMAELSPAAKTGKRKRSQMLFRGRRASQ
light: DIQMTQSPSSVSASVGDRVTITCRASQGIYSWLAWYQQKPGKAPNLLIYTASTLQSGVPSRFSGSGSGTDFTLTISSLQPEDFATYYCQQANIFPLTFGGGTKVEIKRTVAAPSVFIFPPSDEQLKSGTASVVCLLNNFYPREAKVQWKVDNALQSGNSQESVTEQDSKDSTYSLSSTLTLSKADYEKHKVYACEVTHQGLSSPVTKSFNRGEC
- IFNγ EC50 (HEK-Blue IFNγ reporter cells) [3]: < 0.01 ng/mL
- CD40 EC50 (HEK-Blue CD40L NFκB-SEAP reporter cells) (human CD40 [4]): 50.8 ng/mL
- IFNγ EC50 (HEK-Blue IFNγ reporter cells) [5]: < 0.001 ng/mL

B5: CP870,893 (antibody, human IgG2, kappa)
heavy: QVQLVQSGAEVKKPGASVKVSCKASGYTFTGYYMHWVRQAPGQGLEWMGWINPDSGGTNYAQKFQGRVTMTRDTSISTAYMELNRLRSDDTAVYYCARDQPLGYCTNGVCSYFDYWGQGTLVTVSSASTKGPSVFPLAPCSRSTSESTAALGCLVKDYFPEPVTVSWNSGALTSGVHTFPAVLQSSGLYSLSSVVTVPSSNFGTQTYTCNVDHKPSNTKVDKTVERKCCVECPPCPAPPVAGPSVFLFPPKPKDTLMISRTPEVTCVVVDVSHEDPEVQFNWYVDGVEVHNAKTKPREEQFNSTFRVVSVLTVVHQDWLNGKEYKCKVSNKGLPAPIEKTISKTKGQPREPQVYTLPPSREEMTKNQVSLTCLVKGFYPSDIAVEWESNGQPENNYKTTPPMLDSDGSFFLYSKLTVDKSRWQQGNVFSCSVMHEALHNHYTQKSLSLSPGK
light: B3 light
- CD40 EC50 (HEK-Blue CD40L NFκB-SEAP reporter cells) (human CD40 [7]): 30 to 80 ng/mL
- CD40 EC50, mean (HEK-Blue CD40L NFκB-SEAP reporter cells) (human CD40 [7]): 48 ng/mL
- CD40 EC50 in the experiment of FIG. 3 (HEK-Blue CD40L NFκB-SEAP reporter cells) (human CD40 [7]): 57 ng/mL

B7: IFA42 (antibody, human IgG2, kappa)
light: DIQMTQSPSSVSASVGDRVTITCRASQGIYSWLAWYQQKPGKAPNLLIYTASTLQSGVPSRFSGSGSGTDFTLTISSLQPEDFATYYCQQANIFPLTFGGGTKVEIKRTVAAPSVFIFPPSDEQLKSGTASVVCLLNNFYPREAKVQWKVDNALQSGNSQESVTEQDSKDSTYSLSSTLTLSKADYEKHKVYACEVTHQGLSSPVTKSFNRGECGGGGSGGGGSGGGGSGGGGSQDPYVKEAENLKKYFNAGHSDVADNGTLFLGILKNWKEESDRKIMQSQIVSFYFKLFKNFKDDQSIQKSVETIKEDMNVKFFNSNKKKRDDFEKLTNYSVTDLNVQRKAIHELIQVMAELSPAAKTGKRKRSQMLFRGRRASQ
heavy: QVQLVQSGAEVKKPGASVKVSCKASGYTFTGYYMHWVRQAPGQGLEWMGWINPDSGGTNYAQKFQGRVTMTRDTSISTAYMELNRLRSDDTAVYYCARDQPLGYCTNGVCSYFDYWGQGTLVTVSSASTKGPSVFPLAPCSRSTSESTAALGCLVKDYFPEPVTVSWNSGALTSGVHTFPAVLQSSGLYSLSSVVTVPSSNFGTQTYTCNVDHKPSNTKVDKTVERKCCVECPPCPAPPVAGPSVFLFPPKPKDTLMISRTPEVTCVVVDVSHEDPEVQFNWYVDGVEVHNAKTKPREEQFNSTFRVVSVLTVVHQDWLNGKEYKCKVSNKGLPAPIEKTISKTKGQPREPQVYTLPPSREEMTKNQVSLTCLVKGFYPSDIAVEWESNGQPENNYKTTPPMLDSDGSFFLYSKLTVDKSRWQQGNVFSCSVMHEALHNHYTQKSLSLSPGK
- CD40 EC50 (HEK-Blue CD40L NFκB-SEAP reporter cells) (human CD40 [4]): 65.6 ng/mL
- IFNγ EC50 (HEK-Blue IFNγ reporter cells) [5]: 15.4 ng/mL

B8: 3G5 (antibody, human IgG2, kappa)
heavy: QVQLVESGGGVVQPGKSLRLSCAASGFTFSSNGIHWVRQAPGKGLEWVAVIWSDGSNKFYADSVKGRFTISRDNSKNTLYLQMNSLRAEDTAVYYCARASGSGSYYNFFDYWGQGTLVTVSSASTKGPSVFPLAPCSRSTSESTAALGCLVKDYFPEPVTVSWNSGALTSGVHTFPAVLQSSGLYSLSSVVTVPSSNFGTQTYTCNVDHKPSNTKVDKTVERKCCVECPPCPAPPVAGPSVFLFPPKPKDTLMISRTPEVTCVVVDVSHEDPEVQFNWYVDGVEVHNAKTKPREEQFNSTFRVVSVLTVVHQDWLNGKEYKCKVSNKGLPAPIEKTISKTKGQPREPQVYTLPPSREEMTKNQVSLTCLVKGFYPSDIAVEWESNGQPENNYKTTPPMLDSDGSFFLYSKLTVDKSRWQQGNVFSCSVMHEALHNHYTQKSLSLSPG
light: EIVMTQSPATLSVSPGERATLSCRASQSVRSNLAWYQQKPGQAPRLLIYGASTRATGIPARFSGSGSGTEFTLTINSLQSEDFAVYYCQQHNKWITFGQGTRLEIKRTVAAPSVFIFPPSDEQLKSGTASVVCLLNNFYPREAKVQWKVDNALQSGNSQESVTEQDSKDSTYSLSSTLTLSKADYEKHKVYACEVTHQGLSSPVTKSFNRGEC
- CD40 EC50, mean (HEK-Blue CD40L NFκB-SEAP reporter cells) (human CD40 [7]): 9.3 ng/mL

The remaining lines, values ahead:

- CD40 EC50 (HEK-Blue CD40L NFκB-SEAP reporter cells) (human CD40 [1]): 37.3 ng/mL
- IFNβ EC50 (HEK-Blue IFN-α/β SEAP reporter cells) [2]: 1.27 ng/mL
B1: IFA108 (antibody, human IgG2, kappa)
heavy: QVQLVESGGGVVQPGKSLRLSCAASGFTFSSNGIHWVRQAPGKGLEWVAVIWSDGSNKFYADSVKGRFTISRDNSKNTLYLQMNSLRAEDTAVYYCARASGSGSYYNFFDYWGQGTLVTVSSASTKGPSVFPLAPCSRSTSESTAALGCLVKDYFPEPVTVSWNSGALTSGVHTFPAVLQSSGLYSLSSVVTVPSSNFGTQTYTCNVDHKPSNTKVDKTVERKCCVECPPCPAPPVAGPSVFLFPPKPKDTLMISRTPEVTCVVVDVSHEDPEVQFNWYVDGVEVHNAKTKPREEQFNSTFRVVSVLTVVHQDWLNGKEYKCKVSNKGLPAPIEKTISKTKGQPREPQVYTLPPSREEMTKNQVSLTCLVKGFYPSDIAVEWESNGQPENNYKTTPPMLDSDGSFFLYSKLTVDKSRWQQGNVFSCSVMHEALHNHYTQKSLSLSPGAEAAAKEAAAKASYNLLGFLQRSSNFQCQKLLWQLNGRLEYCLKDRMNFDIPEEIKQLQQFQKEDAALTIYEMLQNIFAIFRQDSSSTGWNETIVENLLANVYHQINHLKTVLEEKLEKEDFTRGKLMSSLHLKRYYGRILHYLKAKEYSHCAWTIVRVEILRNFYFINRLTGYLRN
light: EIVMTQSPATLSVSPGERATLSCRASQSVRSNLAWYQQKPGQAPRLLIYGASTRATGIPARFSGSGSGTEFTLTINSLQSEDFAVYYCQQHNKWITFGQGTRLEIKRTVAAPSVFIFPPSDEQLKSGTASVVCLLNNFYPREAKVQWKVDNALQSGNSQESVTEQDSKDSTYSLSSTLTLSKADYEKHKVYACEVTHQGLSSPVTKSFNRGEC

- CD40 EC50 (HEK-Blue CD40L NFκB-SEAP reporter cells) (human CD40 [1]): 30 ng/mL
- IFNβ EC50 (HEK-Blue IFN-α/β SEAP reporter cells) [2]: 0.45 ng/mL
B2: IFA109 (antibody, human IgG2, kappa)
heavy: B1 heavy with C475S
light: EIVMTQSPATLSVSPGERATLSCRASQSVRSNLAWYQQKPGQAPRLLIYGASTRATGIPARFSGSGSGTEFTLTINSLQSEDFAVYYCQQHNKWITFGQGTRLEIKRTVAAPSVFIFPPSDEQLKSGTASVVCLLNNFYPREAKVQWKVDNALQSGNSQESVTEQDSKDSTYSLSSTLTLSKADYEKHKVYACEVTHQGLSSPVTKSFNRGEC

- CD40 EC50 (HEK-Blue CD40L NFκB-SEAP reporter cells) (human CD40 [4]): 25.8 ng/mL
- IFNλ EC50 (HEK-Blue IFNλ reporter cells) [6]: < 0.001 ng/mL
B4: IFA45 (antibody, human IgG2, kappa)
heavy: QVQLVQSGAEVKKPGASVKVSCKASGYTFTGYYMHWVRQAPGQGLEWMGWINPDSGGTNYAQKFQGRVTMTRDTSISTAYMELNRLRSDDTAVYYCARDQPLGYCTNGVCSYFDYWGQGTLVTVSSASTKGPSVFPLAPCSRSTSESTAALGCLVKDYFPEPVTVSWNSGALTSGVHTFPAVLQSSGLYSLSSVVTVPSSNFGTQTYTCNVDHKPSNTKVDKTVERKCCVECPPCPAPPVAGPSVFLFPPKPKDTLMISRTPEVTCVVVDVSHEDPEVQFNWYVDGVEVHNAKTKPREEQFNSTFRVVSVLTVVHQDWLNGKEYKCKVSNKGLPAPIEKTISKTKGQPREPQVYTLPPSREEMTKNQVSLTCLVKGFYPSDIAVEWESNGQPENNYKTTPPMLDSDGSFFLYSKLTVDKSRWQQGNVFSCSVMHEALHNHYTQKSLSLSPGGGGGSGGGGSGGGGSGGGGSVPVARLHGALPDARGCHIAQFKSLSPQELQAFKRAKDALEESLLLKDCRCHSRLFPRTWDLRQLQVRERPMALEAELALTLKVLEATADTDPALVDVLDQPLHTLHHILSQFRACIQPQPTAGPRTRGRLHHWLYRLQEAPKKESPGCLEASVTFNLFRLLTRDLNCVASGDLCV
light: B3 light

- CD40 EC50 (HEK-Blue CD40L NFκB-SEAP reporter cells) (human CD40 [4]): 41.4 ng/mL
- IFNλ EC50 (HEK-Blue IFNλ reporter cells) [6]: 0.153 ng/mL
B6: IFA44 (antibody, human IgG2, kappa)
light: DIQMTQSPSSVSASVGDRVTITCRASQGIYSWLAWYQQKPGKAPNLLIYTASTLQSGVPSRFSGSGSGTDFTLTISSLQPEDFATYYCQQANIFPLTFGGGTKVEIKRTVAAPSVFIFPPSDEQLKSGTASVVCLLNNFYPREAKVQWKVDNALQSGNSQESVTEQDSKDSTYSLSSTLTLSKADYEKHKVYACEVTHQGLSSPVTKSFNRGECGGGGSGGGGSGGGGSGGGGSVPVARLHGALPDARGCHIAQFKSLSPQELQAFKRAKDALEESLLLKDCRCHSRLFPRTWDLRQLQVRERPMALEAELALTLKVLEATADTDPALVDVLDQPLHTLHHILSQFRACIQPQPTAGPRTRGRLHHWLYRLQEAPKKESPGCLEASVTFNLFRLLTRDLNCVASGDLCV
heavy: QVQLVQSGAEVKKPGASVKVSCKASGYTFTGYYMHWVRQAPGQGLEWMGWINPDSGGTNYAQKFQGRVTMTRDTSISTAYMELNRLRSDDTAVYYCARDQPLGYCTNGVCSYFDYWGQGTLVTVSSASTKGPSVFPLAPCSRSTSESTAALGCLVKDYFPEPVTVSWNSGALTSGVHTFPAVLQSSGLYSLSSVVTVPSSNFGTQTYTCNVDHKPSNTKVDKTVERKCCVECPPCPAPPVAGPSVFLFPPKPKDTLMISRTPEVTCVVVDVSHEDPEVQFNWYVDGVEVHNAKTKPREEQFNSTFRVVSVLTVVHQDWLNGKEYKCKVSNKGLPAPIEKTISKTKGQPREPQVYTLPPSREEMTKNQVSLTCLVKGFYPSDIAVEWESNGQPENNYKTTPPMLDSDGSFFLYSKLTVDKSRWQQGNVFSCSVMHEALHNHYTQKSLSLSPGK

- CD40 EC50 (HEK-Blue CD40L NFκB-SEAP reporter cells) (human CD40 [1]): 190 ng/mL
- IFNβ EC50 (HEK-Blue IFN-α/β SEAP reporter cells) [2]: 10.3 ng/mL
B9: IFA106 (antibody, human IgG2, kappa)
heavy: QVQLVESGGGVVQPGKSLRLSCAASGFTFSSNGIHWVRQAPGKGLEWVAVIWSDGSNKFYADSVKGRFTISRDNSKNTLYLQMNSLRAEDTAVYYCARASGSGSYYNFFDYWGQGTLVTVSSASTKGPSVFPLAPCSRSTSESTAALGCLVKDYFPEPVTVSWNSGALTSGVHTFPAVLQSSGLYSLSSVVTVPSSNFGTQTYTCNVDHKPSNTKVDKTVERKCCVECPPCPAPPVAGPSVFLFPPKPKDTLMISRTPEVTCVVVDVSHEDPEVQFNWYVDGVEVHNAKTKPREEQFNSTFRVVSVLTVVHQDWLNGKEYKCKVSNKGLPAPIEKTISKTKGQPREPQVYTLPPSREEMTKNQVSLTCLVKGFYPSDIAVEWESNGQPENNYKTTPPMLDSDGSFFLYSKLTVDKSRWQQGNVFSCSVMHEALHNHYTQKSLSLSPGPAPASYNLLGFLQRSSNFQCQKLLWQLNGRLEYCLKDRMNFDIPEEIKQLQQFQKEDAALTIYEMLQNIFAIFRQDSSSTGWNETIVENLLANVYHQINHLKTVLEEKLEKEDFTRGKLMSSLHLKRYYGRILHYLKAKEYSHCAWTIVRVEILRNFYFINRLTGYLRN
light: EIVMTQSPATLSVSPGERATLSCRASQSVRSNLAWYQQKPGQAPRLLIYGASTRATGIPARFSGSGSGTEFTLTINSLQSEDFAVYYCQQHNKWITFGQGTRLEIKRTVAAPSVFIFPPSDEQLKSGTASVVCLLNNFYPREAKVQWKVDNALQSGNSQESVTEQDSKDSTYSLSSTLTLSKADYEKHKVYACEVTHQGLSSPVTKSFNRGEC

- CD40 EC50 (HEK-Blue CD40L NFκB-SEAP reporter cells) (human CD40 [1]): 142 ng/mL
- IFNβ EC50 (HEK-Blue IFN-α/β SEAP reporter cells) [2]: 2.03 ng/mL
B10: IFA107 (antibody, human IgG2, kappa)
heavy: B9 heavy with C467S
light: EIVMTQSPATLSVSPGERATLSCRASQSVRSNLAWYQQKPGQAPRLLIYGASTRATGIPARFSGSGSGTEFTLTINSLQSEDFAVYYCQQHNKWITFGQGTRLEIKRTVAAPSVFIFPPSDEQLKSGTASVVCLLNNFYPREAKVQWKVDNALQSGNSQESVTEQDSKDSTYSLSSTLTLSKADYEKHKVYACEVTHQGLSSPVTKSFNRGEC
